Source: article PMC3057501 (Molecular cell, 2011)

Target: the molecule itself
Test: SEC-MALS

B1: human PAPD1 (residues 44-538), wild type (enzyme, UniProt Q9NVV4 44-538, looked up)
chain: EQPSGSVETGFEDKIPKRRFSEMQNERREQAQRTVLIHCPEKISENKFLKYLSQFGPINNHFFYESFGLYAVVEFCQKESIGSLQNGTHTPSTAMETAIPFRSRFFNLKLKNQTSERSRVRSSNQLPRSNKQLFELLCYAESIDDQLNTLLKEFQLTEENTKLRYLTCSLIEDMAAAYFPDCIVRPFGSSVNTFGKLGCDLDMFLDLDETRNLSAHKISGNFLMEFQVKNVPSERIATQKILSVLGECLDHFGPGCVGVQKILNARCPLVRFSHQASGFQCDLTTNNRIALTSSELLYIYGALDSRVRALVFSVRCWARAHSLTSSIPGAWITNFSLTMMVIFFLQRRSPPILPTLDSLKTLADAEDKCVIEGNNCTFVRDLSRIKPSQNTETLELLLKEFFEYFGNFAFDKNSINIRQGREQNKPDSSPLYIQNPFETSLNISKNVSQSQLQKFVDLARESAWILQQEDTDRPSISSNRPWGLVSLLLPSAPNR
- stoichiometry N: 2
